Data on 8 proteins can be found in article PMC3289678.

The nature of data set [1]: DiFMUP phosphatase assay, crude secreted fractions. The conditions noted are these: glycan lost; control: wild-type r-hPAP.
The nature of data set [2]: DiFMUP phosphatase assay, crude cell lysates. The conditions noted are these: glycan lost; control: wild-type r-hPAP.
A short description of data set [3]: anti-hPAP western blot, lysates and secreted fractions. Conditions: glycan lost; control: wild-type r-hPAP.
The nature of data set [4]: DiFMUP assay with 70 mM L-(+)-tartrate. Conditions: glycan lost; control: wild-type r-hPAP.
The nature of data set [5]: DiFMUP phosphatase assay after 24 h PNGase F. Conditions: glycan lost; control: untreated r-hPAP.

B1: secretory human prostatic acid phosphatase (hPAP, S-PAP): N62Q (protein)
parent chain: MRAAPLLLARAASLSLGFLFLLFFWLDRSVLAKELKFVTLVFRHGDRSPIDTFPTDPIKESSWPQGFGQLTQLGMEQHYELGEYIRKRYRKFLNESYKHEQVYIRSTDVDRTLMSAMTNLAALFPPEGVSIWNPILLWQPIPVHTVPLSEDQLLYLPFRNCPRFQELESETLKSEEFQKRLHPYKDFIATLGKLSGLHGQDLFGIWSKVYDPLYCESVHNFTLPSWATEDTMTKLRELSELSLLSLYGIHKQKEKSRLQGGVLVNEILNHMKRATQIPSYKKLIMYSAHDTTVSGLQMALDVYNGLLPPYASCHLTELYFEKGEYFVEMYYRNETQHEPYPLMLPGCSPSCPLERFAELVGPVIPQDWSTECMTTNSHQGTEDSTD
In the case of B1, the “enzymatic_activity, other: RFU/µg total protein at 10 min” value is on record as “decreases, 67.0 (2.78) vs 109.5 (1.44)” in data set [1] and “decreases, 7.8 (0.29) vs 12.2 (0.28)” in data set [2]. The expression_or_secretion result in data set [3] is reported as “no change”. Also, in data set [4], the “other: inhibition by L-(+)-tartrate” value is reported as “no change”.

B2: secretory human prostatic acid phosphatase (hPAP, S-PAP): N62Q, N188Q (protein)
parent chain: B1 parent chain
As to B2, in data set [3], the expression_or_secretion entry was “decreases”. Also, the “other: inhibition by L-(+)-tartrate” value in data set [4] is recorded as “no change”.

B3: secretory human prostatic acid phosphatase (hPAP, S-PAP): PNGase F (protein)
parent chain: B1 parent chain
As for B3, the enzymatic_activity result in data set [5] is listed as “no change”.

B4: secretory human prostatic acid phosphatase (hPAP, S-PAP): N301Q (protein)
parent chain: B1 parent chain
On to B4, for which, in data set [3], the expression_or_secretion entry is reported as “abolishes”.

B5: secretory human prostatic acid phosphatase (hPAP, S-PAP): N188Q, N301Q (protein)
parent chain: B1 parent chain
Take B5: the expression_or_secretion entry in data set [3] is reported as “abolishes”.

B6: secretory human prostatic acid phosphatase (hPAP, S-PAP): N62Q, N301Q (protein)
parent chain: B1 parent chain
For the protein B6, the expression_or_secretion entry in data set [3] was “abolishes”.

B7: secretory human prostatic acid phosphatase (hPAP, S-PAP): N188Q (protein)
parent chain: B1 parent chain
Take B7: the expression_or_secretion entry in data set [3] is “decreases”. In addition, in data set [4], the “other: inhibition by L-(+)-tartrate” value was “no change”.

B8: secretory human prostatic acid phosphatase (hPAP, S-PAP): N62Q, N188Q, N301Q (protein)
parent chain: B1 parent chain
In the case of B8, the expression_or_secretion entry in data set [3] is listed as “abolishes”.
